The record followed here is patent US20230174596A1 (published 2023).

LRP6 E1E2 protein (human), sequence (O75581 20-630 limits assumed): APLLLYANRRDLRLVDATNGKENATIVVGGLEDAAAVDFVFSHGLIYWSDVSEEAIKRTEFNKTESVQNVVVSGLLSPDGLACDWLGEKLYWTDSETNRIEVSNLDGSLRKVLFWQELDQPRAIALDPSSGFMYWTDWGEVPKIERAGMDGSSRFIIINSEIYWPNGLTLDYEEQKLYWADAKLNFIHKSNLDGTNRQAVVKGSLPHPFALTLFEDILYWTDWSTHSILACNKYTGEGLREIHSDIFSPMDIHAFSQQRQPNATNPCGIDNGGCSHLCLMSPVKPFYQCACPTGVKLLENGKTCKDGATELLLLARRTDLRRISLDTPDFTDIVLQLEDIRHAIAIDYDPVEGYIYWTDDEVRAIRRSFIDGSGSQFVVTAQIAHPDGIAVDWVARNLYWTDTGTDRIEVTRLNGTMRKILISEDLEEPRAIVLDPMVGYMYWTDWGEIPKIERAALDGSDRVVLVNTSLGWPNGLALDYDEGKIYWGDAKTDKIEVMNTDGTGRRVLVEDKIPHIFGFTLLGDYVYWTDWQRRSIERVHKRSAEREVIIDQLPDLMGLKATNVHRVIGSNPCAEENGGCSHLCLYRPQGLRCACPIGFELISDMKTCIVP

One assay addresses LRP6 E1E2 protein (human) (UniProt O75581). In words: spot phage ELISA.
GCASSNSIRQGWCKQDSDCLAGCVCGPKSNCG (designed binder) [LRP6_CKP10] returned an ELISA of 3.29 and a S/N of 37.4.
Take GCRSVNKICKQDSDCLAGCVCGSSRNCG (designed binder) [LRP6_CKP4]: the ELISA was 2.82 and the S/N was 25.4.
Taken in the same sequence, the figures for GCVSNRVNKGCKQDSDCLAGCVCGPNGFCG (designed binder) [LRP6_CKP7] were 3.3 and 29.
In the same order, the values of GCVNKIKGCKQDSDCLAGCVCGVEGRCG (designed binder) [LRP6_CKP5] are 3.04 and 35.7.
GCRTNRVKGGCKQDSDCLAGCVCGPNGFCG (designed binder) [LRP6_CKP1]: the ELISA is 3.23 and the S/N turned out to be 45.5.
In the same order, the values of GCRSNRIRCKQDSDCLAGCVCYGHGDCG (designed binder) [LRP6_CKP11] are 2.65 and 36.8.
GCVNRVRGCKQDSDCLAGCVCSGGRDCG (designed binder) [LRP6_CKP2] had an ELISA of 3.41 and a S/N of 41.6.
In the same order, the values of GCMNHVKARRCKQDSDCLAGCVCGPNGFCG (designed binder) [LRP6_CKP3] are 2.93 and 40.2.
As for GCVNSVKRCKQDSDCLAGCVCSRGVNCG (designed binder) [LRP6_CKP13], the ELISA was determined as 3.28 and the S/N is 37.8.
Taken in the same sequence, the figures for GCRSNKLREARGCKQDSDCLAGCVCGSRQDCG (designed binder) [LRP6_CKP12] were 0.6 and 6.78.
Taken in the same sequence, the figures for GCRGNIIKCKQDSDCLAGCVCNESRGCG (designed binder) [LRP6_CKP8] were 3.23 and 37.6.
Taken in the same sequence, the figures for GCRSGNTIRKRECKQDSDCLAGCVCGGPGGCG (designed binder) [LRP6_CKP9] were 2.97 and 37.6.
As for GCRNSIKRCKQNSDCLAGCVCSVGHGCG (designed binder) [LRP6_CKP6], the S/N turned out to be 37.4.

The target in a further assay is T1, hVEGF-A (8-109) (human, UniProt P15692 214-315).
T1 construct: residue numbers count on mature VEGF-A; dimer
T1 sequence (looked up): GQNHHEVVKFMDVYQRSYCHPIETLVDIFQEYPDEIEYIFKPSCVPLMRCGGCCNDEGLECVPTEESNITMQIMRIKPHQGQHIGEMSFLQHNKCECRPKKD
In words: spot phage ELISA. (In general: An ELISA detects its analyte on a solid surface through an enzyme-linked reagent.)
Consider GCKDTTFNWGLFCKQDSDCLAGCVCQLYQSCG (designed binder) [VEGF_CKP7.78], for which the ELISA turned out to be 0.7 and the S/N was determined as 11.8.
In the same order, the values of GCETDWYPHQIDCKQDSDCLAGCVCGPNGFCG (designed binder) [VEGF_CKP1] are 0.9 and 16.9.
Taken in the same sequence, the figures for GCLDPTVNWALFCKQDSDCLAGCVCQHYKTCG (designed binder) [VEGF_CKP7.81] were 1.1 and 18.6.
Taken in the same sequence, the figures for GCGETVFEQFLWCKQDSDCLAGCVCGPNGFCG (designed binder) [VEGF_CKP2] were 3.2 and 48.1.
With GCDVMQPYWGCEMDFDCLAGCICHWYNSCGFS (designed binder) [9.63-4], the binding result is “binds”.
In the case of GCDVMQPYWGCEMDFDCLAGCVCHWYNSCGGI (designed binder) [9.63.44-10-A], the binding result is “binds”.
On to GCDVMQPYWGCEMDFDCLVGCVCHWYNSCGDE (designed binder) [9.63.44-10], for which the binding result is listed as “binds”.
On the same count and under the same terms, then GCDVMQPYWGCEMDFDCLAGCVCHWYNSCGGI (designed binder) [9.63-67], with “binds”; and GCDVMQPYWGCEMDFDCLAGCVCHWYNSCGPL (designed binder) [9.63-70], with “binds”.
On the same count and under the same terms, the value for GCDVMQPYWGCEMDFDCLAGCICHWYNSCGQV (designed binder) [9.63.44-2] was “binds”.
On to GCDVMQPYWGCEMDFDCLAGCICHWYNSCGLQ (designed binder) [9.63.44-9], for which the binding result is listed as “binds”.
As for GCDVMQPYWGCEMDFDCLAGCICHWYNSCGQV (designed binder) [9.63-20], the binding result was “binds”.
Consider GCDVMQPYWGCEMDFDCLAGCICHWYNSCGFS (designed binder) [9.63.44-1], for which the binding result was “binds”.
On the same count and under the same terms, the value for GCDVMQPYWGCEMDFDCLAGCVCHWYNSCGPL (designed binder) [9.63.44-12] was “binds”; that for GCDVMQPYWGCEMDFDCLAGCICHWYNSCGSR (designed binder) [9.63-25] was “binds”; that for GCDVMQPYWGCEMDFDCLAGCVCHWYNSCGGI (designed binder) [9.63.44-7] was “binds”.
Still for that read-out and setting: the value for GCDVMQPYWGCEMDFDCLAGCICHWYNSCGTS (designed binder) [9.63-72] was “binds”.
Turning to GCDVMQPYWGCEMDFDCLAGCICHWYNSCGTS (designed binder) [9.63.44-8], the binding result is on record as “binds”.
Still for that read-out and setting: then GCDVMQPYWGCEMDFDCLAGCVCHWYNSCGQF (designed binder) [9.63.44-13], with “binds”.
GCDVMQPYWGCEMDFDCLAGCICHWYNSCGLQ (designed binder) [9.63-79]: the binding result was “binds”.
The same measure, in the same setting: the value for GCDVMQPYWGCEMDFDCLAGCICHWYNSCGYA (designed binder) [9.63.44-3] was “binds”.
Regarding GCDVMQPYWGCEMDFDCLAGCICHWYNSCGYA (designed binder) [9.63-22], the binding result was “binds”.
As to GCDVMQPYWGCEMDFDCLAGCICHWYNSCGSR (designed binder) [9.63.44-4], the binding result is “binds”.
For GCDDPSFDWSVYCKQDSDCLAGCVCRMYDSCG (designed binder) [VEGF_CKP7.2], the ELISA came out at 1.2 and the S/N was 21.5.
Take GCLDPSFNWSLYCKQDSDCLAGCVCQMYDSCG (designed binder) [VEGF_CKP7.57]: the ELISA came to 1 and the S/N was 17.4.
GCRDLTINWALFCKQDSDCLAGCVCQMFNSCG (designed binder) [VEGF_CKP7.73]: the ELISA worked out at 1.2 and the S/N turned out to be 19.2.
In the same order, the values of GCQDPSLNWADYCKQDSDCLAGCVCQMHQSCG (designed binder) [VEGF_CKP7.50] are 0.8 and 14.3.
Taken in the same sequence, the figures for GCLDPSFDWALYCKQDSDCLAGCVCQLYNSCG (designed binder) [LRP6_CKP7.89] were 0.5 and 8.1.
GCHMMYDYCKQDSDCLAGCVCEMYDACG (designed binder) [VEGF_CKP3] showed an ELISA of 3.1 and a S/N of 42.9.
In the same order, the values of GCWDPTFNWALYCKQDSDCLAGCVCQMYDSCG (designed binder) [VEGF_CKP7.24] are 0.8 and 13.4.
Consider GCLDRTLNWALYCKQDSDCLAGCVCQMYNSCG (designed binder) [VEGF_CKP7.54], for which the ELISA is 0.5 and the S/N was 9.3.
GCQDPKLNWAVYCKQDSDCLAGCVCQLFNSCG (designed binder) [VEGF_CKP7.88] displayed an ELISA of 0.5 and a S/N of 7.7.
Taken in the same sequence, the figures for GCQDPTVNWAVYCKQDSDCLAGCVCQFYQSCG (designed binder) [VEGF_CKP7.17] were 0.8 and 13.4.
GCQDPTLNWATYCKQDSDCLAGCVCQMYQSCG (designed binder) [VEGF_CKP7.43]: the ELISA was 0.5 and the S/N was determined as 6.3.
Consider GCQDPTFNWAEYCKQDSDCLAGCVCQMYQSCG (designed binder) [VEGF_CKP7.35], for which the ELISA came out at 0.6 and the S/N amounted to 10.6.
Taken in the same sequence, the figures for GCQDPTFNWAEYCKQDSDCLAGCVCQLYQSCG (designed binder) [VEGF_CKP7.19] were 0.6 and 11.1.
On to GCKNPLFNWALYCKQDSDCLAGCVCQLFDSCG (designed binder) [VEGF_CKP7.8], for which the ELISA was determined as 0.5 and the S/N came to 7.5.
